Laboratory results as given in patent US20210347873A1 (SHANGHAI PHARMAEXPLORER, published 2021).

What was measured:
biotinylated hBLyS-ECD [1] = biological target: T1, biotinylated hBLyS-ECD (human, UniProt Q9Y275 134-285, biotinylated with Biotin-X-X-NHS (molar ratio 7:1); sites not stated); assay: blocking ELISA: biotinylated hBLyS-ECD on coated BAFF R, antibody 0.032 nM
T1 construct: also called biotinylated immunogen; BLyS protein
Description: (§1) BAFF R (purchased from R & D Systems) was aliquoted into 96-well ELISA plate at 50 ng per well, and the plate was sealed with plastic film and incubated overnight at 4° C. On the next day the plate was washed four times with the plate washing buffer [PBS buffer containing 0.05% (v/v) Tween20] and added with blocking solution [PBS buffer containing 0.05% (v/v) Tween20 and 1% (w/w) BSA], then blocked for 1 hour at room temperature. The blocking solution was removed and 50 μL per well of the lead antibodies prepared in Embodiment 1 and 2 were added followed by the addition of 50 μL per well of the biotinylated hBLyS-ECD prepared in Embodiment 2. After incubation for 1 hour at 37° C., the plate was washed four times with the plate washing buffer [PBS buffer containing 0.05% (v/v) Tween20]. 100 μL per well of HRP-labeled (horseradish peroxidase) avidin (purchased from Sigma) was added and incubated at 37° C. for 1 hour. The plate was then washed four times with the plate washing buffer [PBS buffer containing 0.05% (v/v) Tween20]. 100 μL of TMB substrate was aliquoted into each well and after incubation for 5 minutes at room temperature, then 100 μL of stop solution (1.0 N HCl) was aliquoted into each well. A₄₅₀ₙₘ values were read with an ELISA plate reader (SpectraMax 384plus, Molecular Device) and the results were shown in FIGS. 9A-9B and Table 15. It was shown in Table 15 that the binding of BLyS protein to its receptor BAFF R could be blocked by the BLyS antibody.

biotinylated hBLyS-ECD [2] = biological target: T1, biotinylated hBLyS-ECD; assay: blocking ELISA: biotinylated hBLyS-ECD on coated BAFF R, antibody 4 nM
Description: as §1

biotinylated hBLyS-ECD [3] = biological target: T2, biotinylated hBLyS-ECD (human, UniProt Q9Y275 134-285, biotinylated with Biotin-X-X-NHS (molar ratio 7:1), sites not stated); assay: ELISA, biotinylated hBLyS-ECD captured on streptavidin; antibody 0.00427 nM
T2 construct: The hBLyS-ECD of Embodiment 1 after biotinylation (Embodiment 2); also called biotinylated immunogen; BLyS protein; not shown: His tag of the pCPC vector
T2 sequence (Q9Y275 134-285): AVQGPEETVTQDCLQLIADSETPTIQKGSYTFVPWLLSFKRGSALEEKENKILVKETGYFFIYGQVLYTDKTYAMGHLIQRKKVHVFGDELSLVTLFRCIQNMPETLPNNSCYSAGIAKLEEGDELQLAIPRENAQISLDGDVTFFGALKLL
Description: Streptavidin was first diluted to a final concentration of 1.0 μg/mL with PBS, and then 50 μL of diluted streptavidin per well was aliquoted into 96-well ELISA plate, which was subsequently sealed with plastic film and incubated at 4° C. overnight. On the next day the plate was washed four times with the plate washing buffer [PBS buffer containing 0.05% (v/v) Tween20] and added with the blocking solution [PBS buffer containing 0.05% (v/v) Tween20 and 1% (w/w) BSA] and blocked for 2 hours at 37° C. The blocking solution was removed, the biotinylated hBLyS-ECD prepared in Embodiment 2 was diluted with PBS to a final concentration of 50 ng/mL and then aliquoted into the 96-well ELISA plate at 50 μL per well and incubated for 1 hour at 37° C. After rinsing the plate four times with the plate washing buffer [PBS buffer containing 0.05% (v/v) Tween20], 100 μl of the purified lead antibody harvested in Embodiment 1 and 2 was pipetted into each well. After incubation for 1 hour at 37° C., the plate was rinsed four times with the plate washing buffer [PBS buffer containing 0.05% (v/v) Tween20]. HRP-labeled (horseradish peroxidase) secondary antibody (purchased from Sigma) was added in and incubated at 37° C. for 1 hour. The plate was then rinsed four times with the plate washing buffer [PBS buffer containing 0.05% (v/v) Tween20]. 100 μL of TMB substrate was aliquoted into each well and after incubation for 5 minutes at room temperature, 100 μL of stop solution (1.0 N HCl) was aliquoted into each well. A₄₅₀ₙₘ values were read via an ELISA plate reader (SpectraMax M5e purchased from Molecular Devices) and the results were shown in FIGS. 5A-5B and Table 10.

[4] = biological target: T3, cynomolgus BLyS (full length, arginine 132 mutated to histidine) on CHO-K1 cells (cynomolgus, UniProt Q9Y275 1-285 (human entry)); assay: flow cytometry (FACS) on CHO-K1 cynoBLyS cells, Alexa 488 secondary antibody
T3 construct: also called cyno BLyS; CHO-K1 cynoBLyS
T3 chain: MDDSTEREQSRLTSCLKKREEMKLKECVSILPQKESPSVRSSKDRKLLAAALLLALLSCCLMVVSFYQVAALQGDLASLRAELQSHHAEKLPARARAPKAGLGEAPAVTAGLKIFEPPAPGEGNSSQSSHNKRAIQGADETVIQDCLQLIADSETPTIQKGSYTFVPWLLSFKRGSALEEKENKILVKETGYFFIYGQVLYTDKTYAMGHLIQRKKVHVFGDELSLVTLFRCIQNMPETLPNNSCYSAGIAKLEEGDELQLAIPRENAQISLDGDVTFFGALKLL
Description: The medium was aspirated completely, and the cells were rinsed once with PBS buffer (purchased from Invitrogen) and then treated with cell dispersion solution (TrypLE™ Express Enzyme, purchased from Life technology) and collected. The detailed steps are as follows: the cells were rinsed once with PBS buffer, after counting, the cells were diluted to 2×10⁶ cells/ml with PBS buffer, blocked with 2% (w/w) fetal bovine serum and incubated on ice for 30 minutes. 200 μL of which per well was aliquoted into a 96-well FACS plate and centrifuged at 2000 rpm at 4° C., then each 100 μL of the lead antibodies obtained from Embodiment 1 and 2 were aliquoted into each well and incubated on ice for 1 hour. […] After centrifuged and rinsed 3 times with FACS buffer, cells were suspended with 200 μL of FACS buffer and the results were detected and analyzed by FACS (FACS Calibur, purchased from BD). It was shown in Tables 12-13 that the lead antibody could bind to human BLyS protein on the cell surface and the lead antibody could cross-react with cynomolgus BLyS. The data in the table is MFI, the average fluorescence intensity of the cell population.

T1 sequence (Q9Y275 134-285): as the sequence (Q9Y275 134-285) above

B1: 111D10D6G3 (antibody, V domains shown)
VH: QVQLQQPGAELVKPGASVKMSCKASGYTFTRHWITWVKQRPGQGLEWIGDIFPGSGSINYNEKFKSEATLTVEKSSSTAYMQLSSLTSEDSAVYYCARGDVDVWGTGTTVTVSS
VL: DIQMTQSPSSLSASLGERVSLTCRASQEIRGYLSWLQQKPNGTIKRLIYAASTLDSGVPKRFSATRSGSDFSLTISSLESEDFADYYCLQYASYPFTFGSGTKLEIK
notes: Mouse hybridoma monoclonal antibody purified on Protein G
Work on B1 yielded an OD450 nm (biotinylated hBLyS-ECD [1]) of 1.14 OD450 nm and an OD450 nm (biotinylated hBLyS-ECD [2]) of 0.67 OD450 nm.

B2: 111D10D6G3 (antibody, V domains shown)
VH: B1 VH
VL: B1 VL
notes: Mouse hybridoma antibody purified on Protein G
B2 was tested, and the OD450 nm (biotinylated hBLyS-ECD [3]) was 0.082 and the “EC50 (read off the curve)” value [4] was ~0.1 nM.

B3: L9G7 (antibody, human IgG1, V domains shown)
VH: QIQLVQSGAEVKKPGASVKVSCKASGYTFTSYGISWVRQAPGQGLEWMGWISAYNGNTNYAQKLQGRVTMTTDTSTSTAYMELRSLRSDDTAVYYCARTYYDILTGYYYYGMDVWGQGTTVTVSS
VL: EIVLTQSPGTLSLSPGERATLSCRTSQSVDTYLAWYQQKPGQAPRLLIYDASNRATGIPARFSGSGSGTDFTLTISSLEPEDFAVYYCQQRSNWPLTFGGGTKVEIK
For B3, the OD450 nm (biotinylated hBLyS-ECD [3]) was 0.0853 and the “EC50 (read off the curve)” value [4] was ~0.2 nM.

B4: 97A3C2H4 (antibody, V domains shown)
VH: EVKLVESGGGLVQPGGSLKLSCAASGFTFSTYTMSWVRQTPEKRLEWVAYISYGGGSTSYPDTVKGRFTISRDNAKNTLYLQMSSLKSEDTAIYYCTRHVTVVENSMDYWGQGTSVTVSS
VL: DILLTQSPDILSVSPGERVSFSCRASQSIGTSIHWYQQRTNGSPRLLIKYVSESFSGTPSRFSGSGSGTAFTLTINSVESEDIADYYCQQTHSWPWTFGGGTKLEIK
notes: as for B1
Binder B4 has an OD450 nm (biotinylated hBLyS-ECD [1]) of 1.12 OD450 nm and an OD450 nm (biotinylated hBLyS-ECD [2]) of 0.208 OD450 nm.

B5: 97A3C2H4 (antibody, V domains shown)
VH: B4 VH
VL: B4 VL
notes: as for B2
B5 was tested, and the OD450 nm (biotinylated hBLyS-ECD [3]) was 0.105 and the “EC50 (read off the curve)” value [4] was ~0.3 nM.

B6: 8E7D9C7F5 (antibody, V domains shown)
VH: QVQLQQSGVELARPGASVKLSCKASGYTFTSYGISWVKQRTGQALEWIGEIYPRSGNTYYNEKFKGKATLTADKSSSTAYMELRSLTSEDSAVYFCARSGPITTLVATDYGMDYWGQGTSVTVSS
VL: DIVLTQSPASLAVSLGQRATISCRASKSVSTSSYSYMHWYQQKPGQPPKLLIKFASNLESGVPARFSGSGSGTDFTLNIHPVEEEDAATYYCQHSREFPYTFGGGTKLEIK
notes: as for B1
B6 gave an OD450 nm (biotinylated hBLyS-ECD [1]) of 1.05 OD450 nm and an OD450 nm (biotinylated hBLyS-ECD [2]) of 0.173 OD450 nm.

B7: L1D12 (antibody, human IgG1, V domains shown)
VH: QVQLVQSGGGLVQPGGSLRLSCAASGFTVSSNYMSWVRQAPGKGLEWVSVIYSGGSTYYADSVKGRFTISRDNSKNTLYLQMNSLRAEDTAVYYCARGFHDILTGYGMDVWGQGTTVTVSS
VL: SSELTQDPAVSVALGQTVRITCQGDSLRNYYAGWYQQKPGQAPVLVIYGKNNRPSGIPDRFSGSSSGNTASLTITGTQAEDEADYYCSSRDNSGTHLVEFGGGTKLTVL
notes: also called LID12
For B7, the OD450 nm (biotinylated hBLyS-ECD [3]) was 0.135 and the “EC50 (read off the curve)” value [4] was ~0.2 nM.
